Results: patent US20210364527A1

Assays:
[1] = target: T1, LA peptide (N-terminal leucine, penultimate alanine; rest of sequence not given); assay: binder-on-chip single-molecule assay
[2] = target: IR peptide (N-terminal IR; rest of sequence not given); assay: binder-on-chip single-molecule assay
[3] = target: IA peptide (N-terminal isoleucine, penultimate alanine; rest of sequence not given); assay: binder-on-chip single-molecule assay
[4] = target: IR peptide (N-terminal IR; rest of sequence not given); assay: binder-on-chip, run 94158
[5] = target: T2, N-terminal leucine peptide …; assay: peptide-on-chip recognition assay, dye-labelled PS372
T2 sequence (peptide): LAAIAAFAADDDW

[6] = target: peptide having an N-terminal phenylalanine residue (rest of sequence not given)
[7] = target: peptide having an N-terminal tryptophan residue (rest of sequence not given)
[8] = target: peptide having an N-terminal (unmodified) tyrosine residue (rest of sequence not given)
[9] = target: polypeptide with a terminal leucine residue (rest of sequence not given)
[10] = target: peptide containing N-terminal phospho-serine; assay: negative control, single-molecule, SH2 variant immobilized, labeled phospho-serine peptide in solution; top trace
[11] = target: fluorescently-labeled peptide containing N-terminal phospho-tyrosine; assay: single-molecule, SH2 variant immobilized in sample wells, labeled peptide in solution; top plot (top trace of FIG. 22A)
[12] = target: peptide containing N-terminal phospho-serine; assay: negative control, single-molecule, SH2 variant immobilized, labeled phospho-serine peptide in solution; middle trace
[13] = target: fluorescently-labeled peptide containing N-terminal phospho-tyrosine; assay: single-molecule, SH2 variant immobilized in sample wells, labeled peptide in solution; middle plot (middle trace of FIG. 22A)
[14] = target: peptide containing N-terminal phospho-serine; assay: negative control, single-molecule, SH2 variant immobilized, labeled phospho-serine peptide in solution; bottom trace
[15] = target: fluorescently-labeled peptide containing N-terminal phospho-tyrosine; assay: single-molecule, SH2 variant immobilized in sample wells, labeled peptide in solution; bottom plot (bottom trace of FIG. 22A)
[16] = target: fluorescently-labeled peptide containing N-terminal phospho-tyrosine; assay: single-molecule, SH2 variant immobilized in sample wells, labeled peptide in solution; bottom panel
[17] = target: fluorescently-labeled peptide containing N-terminal phospho-tyrosine; assay: single-molecule, SH2 variant immobilized in sample wells, labeled peptide in solution; top panel
[18] = target: T1, LA peptide (N-terminal leucine, …); assay: stopped-flow, complex mixed with excess unlabelled trap peptide
[19] = target: FA peptide (N-terminal phenylalanine, penultimate alanine; rest of sequence not given); assay: as above

B1: PS372 (ClpS homolog) (protein)
chain: MAFPARGKTAPKNEVRRQPPYNVILLNDDDHTYRYVIEMLQKIFGFPPEKGFQIAEEVDRTGRVILLTTSKEHAELKQDQVHSYGPDPYLGRPCSGSMTCVIEPAV
In the case of B1, the mean pulse width [1] is reported as 876 ms, the pulse duration [2] is reported as 83 ms and the pulse duration [3] is reported as 70 ms. The Median pulse width [4] was 64 ms, the mean pulse width [4] was 86 ms and the mean pulse width [5] was 957 ms.

B2: Agrobacterium tumifaciens ClpS1 (atClpS1) (protein)
chain: MIAEPICMQGEGDGEDGGTNRGTSVITRVKPKTKRPNLYRVLLLNDDYTPMEFVIHILERFFQKDREAATRIMLHVHQHGVGECGVFTYEVAETKVSQVMDFARQHQHPLQCVMEKK
B2 gave a mean pulse duration (dashed line of the distribution) [6] of 0.59 s, a mean pulse duration (dashed line of the distribution) [7] of 0.34 s and a mean pulse duration (dashed line of the distribution) [8] of 0.69 s. It also gave a mean pulse duration (dashed line of the distribution) [9] of 0.31 s.

B3: H. sapiens Fyn SH2 domain triple mutant superbinder (designed binder)
chain: MGAMDSIQAEEWYFGKLGRKDAERQLLSFGNPRGTFLIRESETVKGAYALSIRDWDDMKGDHVKHYLIRKLDNGGYYITTRAQFETLQQLVQHYSERAAGLSSRLVVPSHK
B3 gave a pulse duration, M (median) of one trace [10] of 0.09 s, a pulse duration, μ (mean) of one trace [10] of 0.09 s and a pulse duration, M (median) of one trace [11] of 0.15 s. The pulse duration, μ (mean) of one trace [11] was 0.25 s, the pulse duration, M (median) of one trace [12] was 0.11 s and the pulse duration, μ (mean) of one trace [12] was 0.15 s. It also gave a pulse duration, M (median) of one trace [13] of 0.15 s, a pulse duration, μ (mean) of one trace [13] of 0.23 s and a pulse duration, M (median) of one trace [14] of 0.1 s. The pulse duration, μ (mean) of one trace [14] was 0.16 s, the pulse duration, M (median) of one trace [15] was 0.17 s and the pulse duration, μ (mean) of one trace [15] was 0.26 s. The mean interpulse duration (dashed line of the distribution) [16] was 0.51 s and the mean pulse duration (dashed line of the distribution) [17] was 0.26 s.

B4: Planctomycetia bacterium ClpS homolog (PS557) (protein)
chain: MPTAASATESAIEDTPAPARPEVDGRTKPKRQPRYHVVLWNDDDHTYQYVVVMLQSLFGHPPERGYRLAKEVDTQGRVIVLTTTREHAELKRDQIHAFGYDRLLARSKGSMKASIEAEE
For B4, the koff [18] was 0.22 s⁻¹.

B5: PS696 (PS557-SNAP TAG fusion) (designed binder)
chain: MPTAASATESAIEDTPAPARPEVDGRTKPKRQPRYHVVLWNDDDHTYQYVVVMLQSLFGHPPERGYRLAKEVDTQGRVIVLTTTREHAELKRDQIHAFGYDRLLARSKGSMKASIEAEEGSAGSAAGSGEFMDKDCEMKRTTLDSPLGKLELSGCEQGLHEIKLLGKGTSAADAVEVPAPAAVLGGPEPLMQATAWLNAYFHQPEAIEEFPVPALHHPVFQQESFTRQVLWKLLKVVKFGEVISYQQLAALAGNPAATAAVKTALSGNPVPILIPCHRVVSSSGAVGGYEGGLAVKEWLLAHEGHRLGKPGLGGSAGSAAGSGEFHHHHHHHHHHGGGSGGGSGGGSGLNDFFEAQKIEWHEGGGSGGGSGGGSGLNDFFEAQKIEWHE
For B5, the koff [18] was 0.15 s⁻¹.

B6: PS698 (PS557-SNAP TAG fusion 2) (designed binder)
chain: MPTAASATESAIEDTPAPARPEVDGRTKPKRQPRYHVVLWNDDDHTYQYVVVMLQSLFGHPPERGYRLAKEVDTQGRVIVLTTTREHAELKRDQIHAFGYDRLLARSKGSMKASIEAEEHHHHHHHHHHGGGSGGGSGGGSGLNDFFEAQKIEWHEGGGSGGGSGGGSGLNDFFEAQKIEWHEGSAGSAAGSGEFMDKDCEMKRTTLDSPLGKLELSGCEQGLHEIKLLGKGTSAADAVEVPAPAAVLGGPEPLMQATAWLNAYFHQPEAIEEFPVPALHHPVFQQESFTRQVLWKLLKVVKFGEVISYQQLAALAGNPAATAAVKTALSGNPVPILIPCHRVVSSSGAVGGYEGGLAVKEWLLAHEGHRLGKPGLG
B6 was tested, and the koff [18] was 0.19 s⁻¹.

B7: PS706 (atClpS2-V1-EF fusion) (designed binder)
chain: MSDSPVDLKPKPKVKPKLERPKLYKVMLLNDDYTPMSFVTVVLKAVFRMSEDTGRRVMMTAHRFGSAVVVVCERDIAETKAKEATDLGKEAGFPLMFTTEPEEGSAGSAAGSGEFMIKKYTGDFETTTDLNDCRVWSWGVCDIDNVDNITFGLEIDSFFEWCEMQGSTDIYFHDEKFDGEFMLSWLFKNGFKWCKEAKEERTFSTLISNMGQWYALEICWNVKCTTTKTGKTKKEKQRTIIYDSLKKYPFPVKEIAEAFNFPIKKGEIDYTKERPIGYNPTDDEWDYLKNDIQIMAMALKIQFDQGLTRMTRGSDALGDYQDWVKTTYGKSRFKQWFPVLSLGFDKDLRKAYKGGFTWVNKVFQGKEIGEGIVFDVNSLYPSQMYVRPLPYGTPLFYEGEYKENIDYPLYIQNIKVRFRLKERHIPTIQVKQSSLFIQNEYLESSVNKLGVDELIDLTLTNVDLDLFFEHYDILEIHYTYGYMFKASCDMFKGWIDKWIEVKNTTEGARKANAKGMLNSLYGKFGTNPDITGKVPYMGEDGIVRLTLGEEELRDPVYVPLASFVTAWGRYTTITTAQRCFDNIIYCDTDSIHLTGTEVPEAIEHLVDSKKLGYWKHESTFQRAKFIRQKTYVEEIDGELNVKCAGMPDRIKELVTFDNFEVGFSSYGKLLPKRTQGGVVLVDTMFTIKGSAGSAAGSGEFHHHHHHHHHHGGGSGGGSGGGSGLNDFFEAQKIEWHEGGGSGGGSGGGSGLNDFFEAQKIEWHE
B7 gave a koff [19] of 0.589 s⁻¹.

B8: PS703 (atClpS2-V1-SNAP TAG fusion) (designed binder)
chain: MSDSPVDLKPKPKVKPKLERPKLYKVMLLNDDYTPMSFVTVVLKAVFRMSEDTGRRVMMTAHRFGSAVVVVCERDIAETKAKEATDLGKEAGFPLMFTTEPEEGSAGSAAGSGEFMDKDCEMKRTTLDSPLGKLELSGCEQGLHEIKLLGKGTSAADAVEVPAPAAVLGGPEPLMQATAWLNAYFHQPEAIEEFPVPALHHPVFQQESFTRQVLWKLLKVVKFGEVISYQQLAALAGNPAATAAVKTALSGNPVPILIPCHRVVSSSGAVGGYEGGLAVKEWLLAHEGHRLGKPGLGGSAGSAAGSGEFHHHHHHHHHHGGGSGGGSGGGSGLNDFFEAQKIEWHEGGGSGGGSGGGSGLNDFFEAQKIEWHE
B8 showed a koff [19] of 0.767 s⁻¹.

B9: PS704 (atClpS2-V1-2xSNAP TAG fusion) (designed binder)
chain: MSDSPVDLKPKPKVKPKLERPKLYKVMLLNDDYTPMSFVTVVLKAVFRMSEDTGRRVMMTAHRFGSAVVVVCERDIAETKAKEATDLGKEAGFPLMFTTEPEEGSAGSAAGSGEFMDKDCEMKRTTLDSPLGKLELSGCEQGLHEIKLLGKGTSAADAVEVPAPAAVLGGPEPLMQATAWLNAYFHQPEAIEEFPVPALHHPVFQQESFTRQVLWKLLKVVKFGEVISYQQLAALAGNPAATAAVKTALSGNPVPILIPCHRVVSSSGAVGGYEGGLAVKEWLLAHEGHRLGKPGLGMDKDCEMKRTTLDSPLGKLELSGCEQGLHEIKLLGKGTSAADAVEVPAPAAVLGGPEPLMQATAWLNAYFHQPEAIEEFPVPALHHPVFQQESFTRQVLWKLLKVVKFGEVISYQQLAALAGNPAATAAVKTALSGNPVPILIPCHRVVSSSGAVGGYEGGLAVKEWLLAHEGHRLGKPGLGGSAGSAAGSGEFHHHHHHHHHHGGGSGGGSGGGSGLNDFFEAQKIEWHEGGGSGGGSGGGSGLNDFFEAQKIEWHE
Work on B9 yielded a koff [19] of 0.677 s⁻¹.

B10: PS705 (atClpS2-V1-SNAP TAG fusion 2) (designed binder)
chain: MSDSPVDLKPKPKVKPKLERPKLYKVMLLNDDYTPMSFVTVVLKAVFRMSEDTGRRVMMTAHRFGSAVVVVCERDIAETKAKEATDLGKEAGFPLMFTTEPEEHHHHHHHHHHGGGSGGGSGGGSGLNDFFEAQKIEWHEGGGSGGGSGGGSGLNDFFEAQKIEWHEGSAGSAAGSGEFMDKDCEMKRTTLDSPLGKLELSGCEQGLHEIKLLGKGTSAADAVEVPAPAAVLGGPEPLMQATAWLNAYFHQPEAIEEFPVPALHHPVFQQESFTRQVLWKLLKVVKFGEVISYQQLAALAGNPAATAAVKTALSGNPVPILIPCHRVVSSSGAVGGYEGGLAVKEWLLAHEGHRLGKPGLG
In the case of B10, the koff [19] is reported as 1.27 s⁻¹.
